Data taken from patent US20120100152A1 (Sanofi, published 2012).
Substitutions are numbered along the chain they refer to. Names and notes keep the numbering of the source. Primed or numbered codes have the meaning given here. Ends that are not written are not given here. Biotin′ = not defined here

Experiments:
[1] = target: T1, human CD52 (wildtype) (human, not fully specified (residue 3); also: N-linked glycan, GPI anchor); test: flow cytometry, CHO-CD52 cells, 12-point titration
T1 construct: also called huCD52; hCD52
T1 chain: GQNDTSQTSSPS

[2] = target: T1, human CD52 (wildtype); test: flow cytometry, huCD52 transgenic mouse CD4+ T cells, FITC goat F(ab)2 anti-human Fc gamma secondary, GraphPad Prism fit (Example 29)
[3] = target: T1, human CD52 (wildtype); test: flow cytometry, human CD4+ T cells from PBMC, FITC goat F(ab)2 anti-human Fc gamma secondary, GraphPad Prism fit (Example 29)
[4] = target: T1, human CD52 (wildtype); test: flow cytometry, CD4+ T cells, 8-point titration
[5] = target: T2, MUT 4 alanine-scanning mutant hCD52 peptide (human); test: Biacore T100 SPR, antibody immobilized, peptide injected at up to 500 nM;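 further: Amine-coupled antibody (10,000 RU), 25 °C in HBS-EP+ pH 7.4, 5 min association then 5 min dissociation, 1:1 fit with blank flow cell and 0 nM double-referencing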
T2 construct: Synthetic
T2 peptide: GQNATSQTSSPSADC

[6] = target: T3, MUT 5 alanine-scanning mutant hCD52 peptide (human); test: as above
T3 construct: Synthetic
T3 peptide: GQNDASQTSSPSADC

[7] = target: T4, MUT 6 alanine-scanning mutant hCD52 peptide (human); test: as above
T4 construct: Synthetic
T4 peptide: GQNDTAQTSSPSADC

[8] = target: T5, WT 1 wildtype human CD52 peptide (human, not fully specified (residue 15); printed as GQNDTSQTSSPSADK-Biotin); test: as above
T5 construct: Synthetic
T5 peptide: GQNDTSQTSSPSADK-{Biotin′}

[9] = target: T6, MUT 9 alanine-scanning mutant hCD52 peptide (human); test: as above
T6 construct: Synthetic
T6 peptide: GQNDTSQTASPSADC

[10] = target: T7, MUT 1 alanine-scanning mutant hCD52 peptide (human); test: as above
T7 construct: Synthetic
T7 peptide: AQNDTSQTSSPSADC

[11] = target: T8, MUT 2 alanine-scanning mutant hCD52 peptide (human); test: as above
T8 construct: Synthetic
T8 peptide: GANDTSQTSSPSADC

[12] = target: T9, MUT 12 alanine-scanning mutant hCD52 peptide (human); test: as above
T9 construct: Synthetic
T9 peptide: GQNDTSQTSSPAADC

[13] = target: T10, MUT 3 alanine-scanning mutant hCD52 peptide (human); test: as above
T10 construct: Synthetic
T10 peptide: GQADTSQTSSPSADC

[14] = target: T11, MUT 10 alanine-scanning mutant hCD52 peptide (human); test: as above
T11 construct: Synthetic
T11 peptide: GQNDTSQTSAPSADC

[15] = target: T6, MUT 9 alanine-scanning mutant hCD52 …; test: Biacore T100, antibody immobilised on a CM5 chip, peptide injected
[16] = target: T1, human CD52 (wildtype); test: flow cytometry, CHO-CD52 cells
[17] = target: T12, MUT 7 alanine-scanning mutant hCD52 peptide (human); test: Biacore T100 SPR, antibody immobilized, peptide injected at up to 500 nM;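 further: Amine-coupled antibody (10,000 RU), 25 °C in HBS-EP+ pH 7.4, 5 min association then 5 min dissociation, 1:1 fit with blank flow cell and 0 nM double-referencing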
T12 construct: Synthetic
T12 peptide: GQNDTSATSSPSADC

[18] = target: T13, MUT 8 alanine-scanning mutant hCD52 peptide (human); test: as above
T13 construct: Synthetic
T13 peptide: GQNDTSQASSPSADC

B1: chimeric 12G6 antibody (antibody, human IgG1, V domains shown)
VH: EVQLEESGGGLVQPGGSMKLSCVASGFPFSNYWMNWVRQSPEKGLEWVAQIRLKSNNYATHYAESVKGRFTIARDDSKSSVYLQMNNLRAEDTGIYYCTPIDYWGQGTTLTVSS
VL: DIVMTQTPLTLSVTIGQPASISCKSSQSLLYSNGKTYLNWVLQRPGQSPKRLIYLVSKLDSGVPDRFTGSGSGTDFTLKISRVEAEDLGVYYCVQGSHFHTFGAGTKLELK
notes: also called 12G6-Chi; 12G6-chimeric
Binder B1 has an EC50 [1] of 0.95 µg/mL, an EC50 [2] of 34.4 nM and an EC50 [3] of 22.4 nM.

B2: humanized antibody 12G6-SFD1/K11 (antibody, human IgG1, V domains shown)
VH: EVQLVESGGGLVQPGGSLRLSCAASGFPFSNYWMNWVRQAPGKGLEWVGQIRLKSNNYATHYAESVKGRFTISRDDSKNSLYLQMNSLKTEDTAVYYCTPIDYWGQGTTVTVSS
VL: DIVMTQTPLSLSVTPGQPASISCKSSQSLLYSNGKTYLNWVLQKPGQSPKRLIYLVSKLDSGVPDRFSGSGSGTDFTLKISRVEAEDVGVYYCVQGSHFHTFGQGTKLEIK
notes: also called 12G6 K11; 12G6 hu
B2 was tested, and the EC50 [2] was 13.2 nM and the EC50 [3] was 7.3 nM.

B3: humanized antibody 2C3-SFD1/K12 (antibody, V domains shown)
VH: B2 VH with P28T, S30N, N31T, I101V, Y103F
VL: DIVMTQTPLSLSVTPGQPASISCKSSQSLLYSNGKTYLNWLLQKPGQSPQRLIYLVSKLDSGVPDRFSGSGSGTDFTLKISRVEAEDVGVYYCVQGTHLHTFGQGTRLEIKR
notes: also called 2C3 K12; 2C3 unmodified
B3 was tested, and the “fold lower EC50 than Campath-1H®” value [4] was 2 fold, the binding result [5] was “binds” and the binding result [6] was “binds”. B3: binds [7]; binds [8]; binds [9]. B3: binds [10]; binds [11]; binds [12]. The binding result [13] was “binds”, the binding result [14] was “binds” and the EC50 [2] was 13.6 nM. It also gave an EC50 [3] of 11 nM.

B4: humanized antibody 12G6-SFD1/K12 (antibody, V domains shown)
VH: B2 VH
VL: B3 VL with L41V, T97S, L99F, R107K
notes: also called 12G6 K12; GLD52
B4: binds [5]; binds [6]; binds [7]. B4: binds [8]; binds [10]; binds [11]. B4: binds [12]; binds [13]; binds [14]. For the same binder, the binding result [15] was “binds” and the EC50 [3] was 10.6 nM.

B5: Campath-1H® (alemtuzumab) (antibody, IgG1, V domains shown)
VH: QVQLQESGPGLVRPSQTLSLTCTVSGFTFTDFYMNWVRQPPGRGLEWIGFIRDKAKGYTTEYNPSVKGRVTMLVDTSKNQFSLRLSSVTAADTAVYYCAREGHTAAPFDYWGQGSLVTVSS
VL: DIQMTQSPSSLSASVGDRVTITCKASQNIDKYLNWYQQKPGKAPKLLIYNTNNLQTGVPSRFSGSGSGTDFTFTISSLQPEDIATYYCLQHISRPRTFGQGTKVEIKR
notes: Humanized IgG1/kappa; also called C1H; C-1H; copies: 2 + 2
In the case of B5, the EC50 [1] is reported as 1.36 µg/mL, the EC50 [2] is reported as 25.1 nM and the EC50 [3] is reported as 21.9 nM.

B6: chimeric 2C3 antibody (antibody, human IgG1, V domains shown)
VH: B1 VH with Q3K, P28T, S30N, N31T, A73S, S79N, I101V, Y103F
VL: DIVITQTPLTLSVTIGQPVSISCKSSQSLLYSNGKTYLNWLLQRPGQSPKRLIYLVSKLDSGVPDRFTGSGSGTDFTLKISRVEAEDLGVYYCVQGTHLHTFGAGTKLELK
notes: also called 2C3-Chi; 2C3-chimeric
For B6, the EC50 [1] was 1.32 µg/mL, the EC50 [2] was 30.8 nM and the EC50 [3] was 25.9 nM.

B7: chimeric 9D9 antibody (antibody, human IgG1, V domains shown)
VH: EVKLEESGGGLVQPGGSMKLSCAASGFTFSDAWMDWVRQSPEKGLELTAEIRNKAKNHATYYAESVKGRFTISRDDSKSRVYLQMNSLRTEDTGIYYCTTLDSWGQGTSVTVSS
VL: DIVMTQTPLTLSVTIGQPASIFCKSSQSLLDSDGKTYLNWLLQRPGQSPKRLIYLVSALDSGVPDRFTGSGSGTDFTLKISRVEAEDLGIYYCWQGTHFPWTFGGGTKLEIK
notes: also called 9D9-Chi; 9D9-chimeric
For B7, the EC50 [16] was 5 to 7 µg/mL and the EC50 [1] was 6.05 µg/mL.

B8: humanized antibody 9D9-H16/K13 (antibody, V domains shown)
VH: EVQLLESGGGLVQPGGSLRLSCAASGFTFSDAWMDWVRQAPGKGLELVSEIRNKAKNHATYYAESVKGRFTISRDNSKNTLYLQMNSLRAEDTAVYYCTTLDSWGQGTTVTVSS
VL: DIVMTQTPLSLSVTPGQPASISCKSSQSLLDSDGKTYLNWLLQKPGQSPQRLIYLVSALDSGVPDRFSGSGSGTDFTLKISRVEAEDVGVYYCWQGTHFPWTFGQGTKLEIKR
B8: binds [6]; binds [7]; binds [8]. B8: binds [9]; binds [10]; binds [11]. B8: binds [12]; binds [13]; binds [17]. B8: binds [14]; binds [18].

B9: humanized antibody 4B10-H1/K1 (antibody, V domains shown)
VH: EVQLVESGGGLVQPGGSLRLSCAASGFTFSDYYMSWVRQAPGKGLEWVGFIRNKANGYTTEYSASVKGRFTISRDDSKNSLYLQMNSLKTEDTAVYYCARYIWFDYWGQGTTVTVSS
VL: DIVMTQTPLSLSVTPGQPASISCRSSQSLVHTNGNTYLHWYLQKPGQSPQLLIYMVSNRFSGVPDRFSGSGSGTDFTLKISRVEAEDVGVYYCSQSAHVPPLTFGQGTRLEIKR
notes: also called 4B10-Humanized; 4B10 humanized (H1/K1)
B9 showed an EC50 [1] of 2.23 µg/mL.
